Measured values from IntAct's records for PubMed 23208550.

B1: Arrestin domain-containing protein 3 (Homo sapiens), Q96B67 (parent)
chain: MVLGKVKSLTISFDCLNDSNVPVYSSGDTVSGRVNLEVTGEIRVKSLKIHARGHAKVRWTESRNAGSNTAYTQNYTEEVEYFNHKDILIGHERDDDNSEEGFHTIHSGRHEYAFSFELPQTPLATSFEGRHGSVRYWVKAELHRPWLLPVKLKKEFTVFEHIDINTPSLLSPQAGTKEKTLCCWFCTSGPISLSAKIERKGYTPGESIQIFAEIENCSSRMVVPKAAIYQTQAFYAKGKMKEVKQLVANLRGESLSSGKTETWNGKLLKIPPVSPSILDCSIIRVEYSLMVYVDIPGAMDLFLNLPLVIGTIPLHPFGSRTSSVSSQCSMNMNWLSLSLPERPEAPPSYAEVVTEEQRRNNLAPVSACDDFERALQGPLFAYIQEFRFLPPPLYSEIDPNPDQSADDRPSCPSR

What was measured:
[1] = variants of: B1; conditions: with nedd4_human NEDD4, P46934
hgs_human HGS, O14964 = variants of: B1; conditions: with hgs_human HGS
[2] = variants of: B1; conditions: with adrb2_human ADRB2, P07550
[3] = variants of: B1; conditions: with adrb2_human ADRB2, P07550; remark: listed apart in the source

Sequence of hgs_human HGS, O14964 (O14964 whole entry): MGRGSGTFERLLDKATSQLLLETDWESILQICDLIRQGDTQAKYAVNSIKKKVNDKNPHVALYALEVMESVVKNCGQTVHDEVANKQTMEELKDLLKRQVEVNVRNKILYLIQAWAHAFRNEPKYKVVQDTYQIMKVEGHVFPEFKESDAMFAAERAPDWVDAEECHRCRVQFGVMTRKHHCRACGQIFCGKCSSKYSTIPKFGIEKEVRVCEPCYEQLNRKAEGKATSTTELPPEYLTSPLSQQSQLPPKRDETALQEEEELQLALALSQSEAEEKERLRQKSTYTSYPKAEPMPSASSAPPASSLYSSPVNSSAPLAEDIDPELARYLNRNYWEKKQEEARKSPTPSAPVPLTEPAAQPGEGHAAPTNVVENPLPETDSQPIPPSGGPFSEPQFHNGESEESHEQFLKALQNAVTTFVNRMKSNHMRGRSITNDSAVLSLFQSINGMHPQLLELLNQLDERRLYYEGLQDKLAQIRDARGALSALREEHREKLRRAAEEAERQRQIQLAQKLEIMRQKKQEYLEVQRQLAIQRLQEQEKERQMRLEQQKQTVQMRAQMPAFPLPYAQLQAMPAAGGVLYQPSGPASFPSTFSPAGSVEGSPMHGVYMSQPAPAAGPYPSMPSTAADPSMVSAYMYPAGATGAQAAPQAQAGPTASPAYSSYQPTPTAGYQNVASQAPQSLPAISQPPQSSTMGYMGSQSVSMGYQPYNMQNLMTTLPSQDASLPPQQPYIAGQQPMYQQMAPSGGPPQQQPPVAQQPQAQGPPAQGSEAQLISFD
Sequence of nedd4_human NEDD4, P46934 (P46934 whole entry): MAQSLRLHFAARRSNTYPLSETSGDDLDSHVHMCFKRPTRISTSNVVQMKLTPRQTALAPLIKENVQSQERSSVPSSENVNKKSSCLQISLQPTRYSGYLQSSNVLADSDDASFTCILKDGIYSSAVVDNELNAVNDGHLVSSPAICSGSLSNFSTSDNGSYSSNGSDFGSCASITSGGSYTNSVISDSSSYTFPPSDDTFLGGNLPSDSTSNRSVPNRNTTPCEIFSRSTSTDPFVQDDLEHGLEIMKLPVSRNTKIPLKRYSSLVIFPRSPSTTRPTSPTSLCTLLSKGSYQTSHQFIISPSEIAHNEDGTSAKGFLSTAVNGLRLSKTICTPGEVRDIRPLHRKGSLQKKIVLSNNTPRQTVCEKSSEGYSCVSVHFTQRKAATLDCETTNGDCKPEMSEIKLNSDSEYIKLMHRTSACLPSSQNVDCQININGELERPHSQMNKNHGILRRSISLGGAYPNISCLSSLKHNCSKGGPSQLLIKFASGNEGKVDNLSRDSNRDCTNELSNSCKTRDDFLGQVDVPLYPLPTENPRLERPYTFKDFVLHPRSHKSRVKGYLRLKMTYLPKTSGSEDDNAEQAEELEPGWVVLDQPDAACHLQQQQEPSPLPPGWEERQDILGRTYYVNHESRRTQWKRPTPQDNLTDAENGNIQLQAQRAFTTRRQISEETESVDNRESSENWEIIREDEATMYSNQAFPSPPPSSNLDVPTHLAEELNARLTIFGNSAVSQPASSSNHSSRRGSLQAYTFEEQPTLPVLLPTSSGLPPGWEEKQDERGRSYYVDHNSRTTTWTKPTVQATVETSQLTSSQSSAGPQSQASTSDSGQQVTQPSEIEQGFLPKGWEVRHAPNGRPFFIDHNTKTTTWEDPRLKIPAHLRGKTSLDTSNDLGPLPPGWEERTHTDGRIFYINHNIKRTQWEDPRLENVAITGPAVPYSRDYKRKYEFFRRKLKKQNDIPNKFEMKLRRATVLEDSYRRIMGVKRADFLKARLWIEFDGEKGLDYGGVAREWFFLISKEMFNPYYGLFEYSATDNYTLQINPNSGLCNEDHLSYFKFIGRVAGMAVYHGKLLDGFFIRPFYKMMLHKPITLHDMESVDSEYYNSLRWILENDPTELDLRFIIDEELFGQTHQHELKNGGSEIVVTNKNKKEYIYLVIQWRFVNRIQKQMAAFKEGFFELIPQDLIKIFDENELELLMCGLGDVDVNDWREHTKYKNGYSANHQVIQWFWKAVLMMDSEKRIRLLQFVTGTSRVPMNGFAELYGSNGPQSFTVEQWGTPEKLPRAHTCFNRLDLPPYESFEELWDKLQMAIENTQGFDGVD

Variant	effect of a mutation on the interaction [1]	effect of a mutation on the interaction (hgs_human HGS, O14964)	effect of a mutation on the interaction [2]	effect of a mutation on the interaction [3]
Y349A	disrupting interaction	disrupting interaction	decreasing interaction	disrupting interaction
P346A	disrupting interaction	disrupting interaction	decreasing interaction	disrupting interaction
P347A	disrupting interaction	disrupting interaction	decreasing interaction	disrupting interaction

The next lines start with the values.

effect of a mutation on the interaction [1]	effect of a mutation on the interaction (hgs_human HGS, O14964)	effect of a mutation on the interaction [2]	effect of a mutation on the interaction [3]	Variant
disrupting interaction	disrupting interaction	decreasing interaction	disrupting interaction	P391A
disrupting interaction	disrupting interaction	decreasing interaction	disrupting interaction	P392A
disrupting interaction	disrupting interaction	decreasing interaction	disrupting interaction	Y394A
